# Measured values published in US20230313215A1 (published 2023).
# T1: 3x syn. clamp (three-PDZ clamp, nc=3)
# T1 chain: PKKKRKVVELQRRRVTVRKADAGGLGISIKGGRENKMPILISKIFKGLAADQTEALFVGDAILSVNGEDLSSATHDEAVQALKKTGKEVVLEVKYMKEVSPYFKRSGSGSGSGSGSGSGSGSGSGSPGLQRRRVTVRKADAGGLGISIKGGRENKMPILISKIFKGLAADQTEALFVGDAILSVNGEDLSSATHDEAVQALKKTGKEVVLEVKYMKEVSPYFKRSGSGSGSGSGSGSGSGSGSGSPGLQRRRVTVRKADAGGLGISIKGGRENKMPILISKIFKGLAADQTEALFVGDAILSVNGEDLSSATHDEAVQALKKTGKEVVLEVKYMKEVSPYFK
# T2: 2x syn. clamp (two-PDZ clamp, nc=2)
# T2 chain: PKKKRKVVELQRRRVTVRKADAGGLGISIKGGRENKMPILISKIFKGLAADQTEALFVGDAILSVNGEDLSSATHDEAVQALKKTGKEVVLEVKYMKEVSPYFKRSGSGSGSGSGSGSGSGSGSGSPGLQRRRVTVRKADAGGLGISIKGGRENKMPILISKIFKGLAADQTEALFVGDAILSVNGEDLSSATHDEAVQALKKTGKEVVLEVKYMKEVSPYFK
# B1: MBP-43-8(low)-syn. lig.(S5), ligand VKESLV (other, not shown: large carriers)
# chain: GEAPFQCRICMANFSRQDRLDRHTRTHTGEKPFQCRICMANFSQKEHLAGHLRTHTGEKPFQCRICMANFSRRDNLNRHLKTHLRGSGSGVKESLV
# Columns and labels:
# [1] = biological target: T1, 3x syn. clamp (three-PDZ clamp, nc=3); test: cell-based or functional assay
# [2] = biological target: T2, 2x syn. clamp (two-PDZ clamp, nc=2); test: cell-based or functional assay
binder,measurement,setting,value
B1,EC50 of synTF titration on nc=3 DBM oligo probe (fluorescence anisotropy) in the presence of three-PDZ clamp,[1],5.1 nM
same,EC50 of synTF titration on nc=2 DBM oligo probe (fluorescence anisotropy) in the presence of clamp,[2],18 nM
